Laboratory results: patent US20230406919A1 (Johns Hopkins, published 2023)

B1: CTNav1.9FL (other)
chain: ENFNTATEESEDPLGEDDFDIFYEVWEKFDPEATQFIKYSALSDFADALPEPLRVAKPNKYQFLVMDLPMVSEDRLHCMDILFAFTARVLGGSDGLDSMKAMMEEKFMEANPLKKLYEPIVTTTKRKEEERGAAIIQKAFRKYMMKVTKGDQGDQNDLENGPHSPLQTLCNGDLSSFGVAKGKVHCD
notes: range 1605-1791; GST tag cleaved
B2: Nb26 (VHH)
VHH: QVQLQESGGGSVQAGGSLRLSCVASGRTFSSYAMAWFRQVPGKEREFVGRISRSGGSTMYADSVKGRFDISRDNAKNTVFLQMSSLKPEDTAVYYCAAKAAVILTGIPDYWGQGTQVTVSS
notes: pHEN4 clone, HA-tagged, periplasmic extract; also called family 4
B3: CTNav1.9T (other)
chain: ENFNTATEESEDPLGEDDFDIFYEVWEKFDPEATQFIKYSALSDFADALPEPLRVAKPNKYQFLVMDLPMVSEDRLHCMDILFAFTARVLGGSDGLDSMKAMMEEKFMEANPLKKLYEPIVTTTKRKEEERGAAIIQKAFRKYMMKVTKGDQGDQNDLENGPHS
notes: range 1605-1768; GST tag cleaved

Key:
[1] = target: T1, Calmodulin (CaM) (mammalian, UniProt P0DP23 1-149); experiment: co-expression in E. coli, GST pull-down and anion exchange chromatography
T1 construct: also called free CaM; CaM alone

[2] = target: T1, Calmodulin (CaM); experiment: periplasmic-extract ELISA, 1:100 extract on 0.1 ug coated Ca2+CaM or apoCaM, anti-HA detection; positive above absorbance 2

binding result [1]	binding result [2]	Binder
no binding		B1
	binds	B2
no binding		B3
